Two molecules from paper doi:10.1101/2021.12.02.471034 can be followed below.

Values joined by “and” are separate entries in the source; they are usually repeats but may differ in a detail not shown here. Equal values may be shown once.

Assay in all cases: SEC-MALS
(Size exclusion chromatography separates by hydrodynamic size, large species first.)

Assay [1] has as its target Hsf1 CS mutant (C35S/C103S/C153S/C373S/C378S) (human) (UniProt Q00613).
Assay [2] deals with T1, Heat shock factor 1 (Hsf1) (human), Q00613.
T1 chain: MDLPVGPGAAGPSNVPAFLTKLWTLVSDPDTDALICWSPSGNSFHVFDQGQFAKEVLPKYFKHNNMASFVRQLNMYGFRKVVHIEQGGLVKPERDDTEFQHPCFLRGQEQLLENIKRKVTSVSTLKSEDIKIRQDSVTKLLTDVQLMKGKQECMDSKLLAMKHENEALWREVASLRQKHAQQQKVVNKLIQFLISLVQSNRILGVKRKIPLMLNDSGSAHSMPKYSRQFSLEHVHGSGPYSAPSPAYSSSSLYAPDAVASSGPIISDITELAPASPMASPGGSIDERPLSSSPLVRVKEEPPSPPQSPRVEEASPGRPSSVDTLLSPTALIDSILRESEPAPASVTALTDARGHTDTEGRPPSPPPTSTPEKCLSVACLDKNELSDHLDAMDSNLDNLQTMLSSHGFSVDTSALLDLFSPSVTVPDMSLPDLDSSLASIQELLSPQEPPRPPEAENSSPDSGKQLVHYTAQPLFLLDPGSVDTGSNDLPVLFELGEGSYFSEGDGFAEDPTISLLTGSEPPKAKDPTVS
The note with it: remark: other sources report otherwise.

Assay [3] addresses T1, Heat shock factor 1 (Hsf1) (human), …. Conditions: remark: other sources report otherwise.

For orientation: stoichiometry N means a count of units in the complex or per binding partner. With “Hsf1 CS mutant (C35S/C103S/C153S/C373S/C378S) (from UniProt Q00613 1-529) (natural protein)”, the stoichiometry N in assay [1] stood at 5.

B1: Heat shock factor 1 (Hsf1), Q00613 1-529 (natural protein)
chain: T1 chain
On to B1, for which the stoichiometry N in assay [2] is 7; in assay [3] it was 9 and < 16.
